Laboratory results as given in paper PMC5655499, “Peptide array-based screening reveals a large number of proteins interacting with the ankyrin-repeat domain of the zDHHC17 S-acyltransferase” (The Journal of Biological Chemistry, 2017).

B1: CSPα 15-mer peptide (wild type) containing the zDABM [not stated] / His6-tagged AR domain (residues 51–288) of zDHHC17 [human] (parent)
chain 1: THIDDYSTWDIVKATQYGIYERCRELVEAGYDVRQPDKENVTLLHWAAINNRIDLVKYYISKGAIVDQLGGDLNSTPLHWATRQGHLSMVVQLMKYGADPSLIDGEGCSCIHLAAQFGHTSIVAYLIAKGQDVDMMDQNGMTPLMWAAYRTHSVDPTRLLLTFNVSVNLGDKYHKNTALHWAVLAGNTTVISLLLEAGANVDAQNIKGESALDLAKQRKNVWMINHLQEARQAKGYDN
chain 2: TDTPIVIQPASATET
B2: SNAP25 15-mer peptide (wild type) containing the zDABM [not stated] / His6-tagged AR domain (residues 51–288) of zDHHC17 [human] (parent)
chain 1: B1 chain 1
chain 2: QDGVVASQPARVVDE

Variants of: B1
Assay: far-Western blotting on peptide array
Settings: with His6-tagged AR domain (residues 51–288) of zDHHC17 [human]; ARzD17-His 500 nm in PBS-T, overnight, 4 °C
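Note: PSSM score: binding signal versus wild type scaled to sum 1 per position.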

Screen value, < 0.005:
chain 2 A10D
chain 2 P4F
chain 2 P4K
chain 2 P4N
chain 2 P4S
chain 2 P4L
chain 2 P4Y
chain 2 P4D
chain 2 P4Q
chain 2 P4M
chain 2 P4R
chain 2 S11D
chain 2 S11E
chain 2 P9R
chain 2 P9Y
chain 2 P9I
chain 2 P9H
chain 2 P9W
chain 2 P9Q
chain 2 P9T
chain 2 P9L
chain 2 P9G
chain 2 P9N
chain 2 P9V
chain 2 P9D
chain 2 P9K
chain 2 P9M
chain 2 P9A
chain 2 P9C
chain 2 P9S
chain 2 P9F
chain 2 P9E
chain 2 I7P
chain 2 Q8G
chain 2 Q8K
chain 2 Q8S
chain 2 Q8N
chain 2 Q8L
chain 2 Q8F
chain 2 Q8Y
chain 2 Q8T
chain 2 Q8I
chain 2 Q8D
chain 2 Q8W
chain 2 Q8A
chain 2 Q8E
chain 2 Q8V
chain 2 Q8R
chain 2 Q8P
chain 2 Q8H
chain 2 I5Q
chain 2 I5G
chain 2 I5H
chain 2 I5K
chain 2 I5N
chain 2 I5Y
chain 2 I5A
chain 2 I5D
chain 2 I5W
chain 2 I5S
chain 2 I5P
chain 2 I5T
chain 2 I5L
chain 2 I5R
chain 2 I5F
chain 2 I5E
chain 2 I5M
chain 2 V6P
chain 2 V6D
chain 2 V6G
chain 2 V6A

Variants of: B2
Assay: far-Western blotting on peptide array
Settings: with His6-tagged AR domain (residues 51–288) of zDHHC17 [human]; ARzD17-His 500 nm in PBS-T, overnight, 4 °C

Screen value, < 0.005:
chain 2 R11E
chain 2 R11Q
chain 2 R11D
chain 2 R11V
chain 2 R11M
chain 2 R11T
chain 2 R11F
chain 2 R11I
chain 2 R11N
chain 2 R11Y
chain 2 R11L
chain 2 A6G
chain 2 A6P
chain 2 A10D
chain 2 Q8I
chain 2 Q8E
chain 2 Q8N
chain 2 Q8G
chain 2 Q8S
chain 2 Q8W
chain 2 Q8H
chain 2 Q8F
chain 2 Q8D
chain 2 Q8A
chain 2 Q8Y
chain 2 Q8P
chain 2 Q8T
chain 2 Q8V
chain 2 P9M
chain 2 P9F
chain 2 P9V
chain 2 P9L
chain 2 P9Q
chain 2 P9G
chain 2 P9H
chain 2 P9R
chain 2 P9Y
chain 2 P9T
chain 2 P9N
chain 2 P9K
chain 2 P9W
chain 2 P9A
chain 2 P9D
chain 2 P9E
chain 2 P9C
chain 2 P9S
chain 2 V4E
chain 2 V4H
chain 2 V4K
chain 2 V4S
chain 2 V4Q
chain 2 V4Y
chain 2 V4T
chain 2 V4M
chain 2 V4R
chain 2 V4D
chain 2 V4A
chain 2 V4F
chain 2 V4N
chain 2 V4G
chain 2 V4W
chain 2 V4L
chain 2 V5K
chain 2 V5H
chain 2 V5A
chain 2 V5T
chain 2 V5M
chain 2 V5E
chain 2 V5N
chain 2 V5L
chain 2 V5Y
chain 2 V5Q
chain 2 V5D
chain 2 V5P
chain 2 V5G
chain 2 V5S
chain 2 V5W
chain 2 S7P
chain 2 S7G
chain 2 V12D
chain 2 V12E
